These results are taken from article PMC11253593.

The target in assay [1] is DdrI (DR0997), CRP family protein from Deinococcus radiodurans, untagged (Deinococcus radiodurans). Briefly: SEC; gel filtration of the purified protein to check homogeneity and oligomeric state; also run with cAMP and Mn2+ added (dimer formation not affected). A general note: Size exclusion chromatography separates by hydrodynamic size, large species first.
Assay [2] concerns the target eGFP-DdrI (DdrI with N-terminal fused eGFP) (Deinococcus radiodurans). The assay is described as above.

In the case of “DdrI (DR0997), CRP family protein from Deinococcus radiodurans, untagged (natural protein)”, in assay [1], the stoichiometry N (commonly a count of units in the complex or per binding partner) worked out at 2.
In turn, “eGFP-DdrI (DdrI with N-terminal fused eGFP) (natural protein)” came in with a stoichiometry N in assay [2] of 2.
